Data published in paper PMC5299843.

What was measured:
[1] = target: recombinant LH/CG receptor (UniProt P22888)
[2] = target: recombinant LH/CG receptor (UniProt P22888); remark: listed apart in the source

UniProt P22888, sequence (P22888 27-699): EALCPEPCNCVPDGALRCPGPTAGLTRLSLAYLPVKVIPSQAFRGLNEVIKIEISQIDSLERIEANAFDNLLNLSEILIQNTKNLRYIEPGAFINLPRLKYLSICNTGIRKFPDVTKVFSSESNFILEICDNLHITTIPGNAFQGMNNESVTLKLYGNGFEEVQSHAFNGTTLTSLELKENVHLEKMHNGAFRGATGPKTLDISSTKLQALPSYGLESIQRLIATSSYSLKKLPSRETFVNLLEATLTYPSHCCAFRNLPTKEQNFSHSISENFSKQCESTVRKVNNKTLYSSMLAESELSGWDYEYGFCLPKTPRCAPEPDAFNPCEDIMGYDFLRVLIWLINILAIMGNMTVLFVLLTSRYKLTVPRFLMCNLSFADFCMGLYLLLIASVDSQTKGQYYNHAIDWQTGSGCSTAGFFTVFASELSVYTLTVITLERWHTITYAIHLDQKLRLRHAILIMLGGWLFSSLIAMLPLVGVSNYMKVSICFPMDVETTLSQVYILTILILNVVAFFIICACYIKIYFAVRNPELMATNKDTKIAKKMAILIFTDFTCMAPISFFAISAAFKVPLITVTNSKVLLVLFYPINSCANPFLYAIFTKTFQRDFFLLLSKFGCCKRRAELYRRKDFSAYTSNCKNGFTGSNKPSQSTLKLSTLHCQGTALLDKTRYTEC

With “human recombinant chorionic gonadotropin (hCG, Ovitrelle) (from UniProt P01215 25-116; P0DN86 21-165) (ligand)” as the substance, how does the cAMP biosensor signal in COS7-LHCGR cells with 30 pM hCG after heat treatment of the hormone at 65 °C for 30 min; loss in active hormone concentration [1] read?
The cAMP biosensor signal in COS7-LHCGR cells with 30 pM hCG after heat treatment of the hormone at 65 °C for 30 min; loss in active hormone concentration was 40%.

What about the change of FRET signal of the cAMP biosensor TEpacVV in living COS7-LHCGR cells, serial concentrations of hCG over time; concentration giving full receptor activation [2] of the same substance?
The change of FRET signal of the cAMP biosensor TEpacVV in living COS7-LHCGR cells, serial concentrations of hCG over time; concentration giving full receptor activation was 50 pM.
